The values below come from the Immune Epitope Database (IEDB).

In one experiment the target is HLA-A*02:03. Kind of experiment: IEDB peptide-MHC binding, purified MHC/competitive/radioactivity; ≥ and ≤ were set here for values at or beyond the usual limits of such assays.
Another experiment has as its target HLA-A*02:01. The description is as above.
The target in the next experiment is HLA-A*02:02. The experiment is described as above.
In a further experiment the target is HLA-A*02:06. The experiment is described as above.
The next experiment concerns the target HLA-A*68:02. Kind of experiment: IEDB peptide-MHC binding, cellular MHC/competitive/fluorescence; ≥ and ≤ were set here for values at or beyond the usual limits of such assays.
[1] abbreviates: source organism: Vaccinia virus WR.
Where [2] appears, read: source organism: Hepacivirus hominis.
Setting [3] is: source organism: Mammarenavirus lassaense.

One may read the IC50 as the concentration that gives 50% inhibition. With LLDDFVEII, the 50% inhibitory concentration (IC50) amounted to 523 nM with HLA-A*02:03 (source organism: SARS-CoV1); 51 nM with HLA-A*02:01 (source organism: SARS-CoV1); 136 nM in the experiment with HLA-A*02:02 (source organism: SARS-CoV1); 159 nM with HLA-A*02:06 (source organism: SARS-CoV1); 30200 nM in the experiment with HLA-A*68:02 (source organism: SARS-CoV1).
For LLEQLIENI, the IC50 is 1960 nM in the experiment with HLA-A*02:03 (setting [1]); 1570 nM with HLA-A*02:01 (setting [1]); 702 nM with HLA-A*02:02 (setting [1]); 539 nM with HLA-A*02:06 (setting [1]); ≥ 70000 nM with HLA-A*68:02 (setting [1]).
As to LLKCVSDSWL, the IC50 with HLA-A*02:03 (setting [1]) was determined as 118 nM; in the experiment with HLA-A*02:01 (setting [1]) it was 1530 nM; with HLA-A*02:02 (setting [1]), 76 nM; with HLA-A*02:06 (setting [1]) it was 4730 nM; with HLA-A*68:02 (setting [1]), 9850 nM.
Taken in the same sequence, the figures for LLLENKSLTI were 985 nM, 439 nM, 982 nM, 1320 nM and 9580 nM.
In the case of LLLEWLAEVV, the IC50 came to 0.81 nM with HLA-A*02:03 (source organism: SARS-CoV1); 0.37 nM with HLA-A*02:01 (source organism: SARS-CoV1); 0.31 nM in the experiment with HLA-A*02:02 (source organism: SARS-CoV1); 0.52 nM with HLA-A*02:06 (source organism: SARS-CoV1); 10800 nM in the experiment with HLA-A*68:02 (source organism: SARS-CoV1).
For the sequence LLLLSVGVGI, the IC50 in the experiment with HLA-A*02:03 (setting [2]) is 605 nM; in the experiment with HLA-A*02:01 (setting [2]), 764 nM; in the experiment with HLA-A*02:02 (setting [2]), 2570 nM; with HLA-A*02:06 (setting [2]) it was 714 nM; in the experiment with HLA-A*68:02 (setting [2]), 52600 nM.
Take LLLSICLGSL: the IC50 with HLA-A*02:03 (source organism: SARS-CoV1) was found to be 104 nM; in the experiment with HLA-A*02:01 (source organism: SARS-CoV1), 45 nM; with HLA-A*02:02 (source organism: SARS-CoV1) it was 20 nM; with HLA-A*02:06 (source organism: SARS-CoV1), 258 nM; with HLA-A*68:02 (source organism: SARS-CoV1), 54900 nM.
As for LLLSTTEWQV, the IC50 with HLA-A*02:03 (setting [2]) was determined as 101 nM; with HLA-A*02:01 (setting [2]), 7.1 nM; in the experiment with HLA-A*02:02 (setting [2]), 18 nM; with HLA-A*02:06 (setting [2]) it was 13 nM; with HLA-A*68:02 (setting [2]), 10100 nM.
The like results for LLMALPHQA were, in that order, 10 nM, 73 nM, 52 nM, 1560 nM and 9880 nM.
Turning to LLMEGLKLLS, the concentration for half-maximal inhibition (IC50) in the experiment with HLA-A*02:03 (setting [3]) stood at 40 nM; in the experiment with HLA-A*02:01 (setting [3]), 12 nM; in the experiment with HLA-A*02:02 (setting [3]), 78 nM; with HLA-A*02:06 (setting [3]), 1750 nM; with HLA-A*68:02 (setting [3]) it was 8470 nM.
Consider LLNMRDLIV, for which the IC50 is 1.2 nM with HLA-A*02:03 (setting [1]); 42 nM in the experiment with HLA-A*02:01 (setting [1]); 665 nM with HLA-A*02:02 (setting [1]); 225 nM in the experiment with HLA-A*02:06 (setting [1]); 23200 nM with HLA-A*68:02 (setting [1]).
For the sequence LLNMRDLIVT, the 50% inhibitory concentration (IC50) with HLA-A*02:03 (setting [1]) amounted to 557 nM; with HLA-A*02:01 (setting [1]), 2020 nM; in the experiment with HLA-A*02:02 (setting [1]), 1420 nM; in the experiment with HLA-A*02:06 (setting [1]), 707 nM; with HLA-A*68:02 (setting [1]) it was 33200 nM.
Take LLNVQTLISL: the IC50 with HLA-A*02:03 (setting [1]) was determined as 16 nM; in the experiment with HLA-A*02:01 (setting [1]), 73 nM; with HLA-A*02:02 (setting [1]) it was 24 nM; in the experiment with HLA-A*02:06 (setting [1]) it was 97 nM; in the experiment with HLA-A*68:02 (setting [1]), 14500 nM.
Taken in the same sequence, the figures for LLPLTSLVI were 621 nM, 1180 nM, 2390 nM, 1430 nM and ≥ 70000 nM.
With LLSTTEWQV, the IC50 in the experiment with HLA-A*02:03 (setting [2]) is 95 nM; with HLA-A*02:01 (setting [2]), 67 nM; in the experiment with HLA-A*02:02 (setting [2]), 4.9 nM; with HLA-A*02:06 (setting [2]), 333 nM; with HLA-A*68:02 (setting [2]), 27300 nM.
Taken in the same sequence, the figures for LLSVGVGIYL were 568 nM, 18 nM, 12 nM, 575 nM and 20100 nM.
Turning to LLVAAGMEA, the IC50 was found to be 17 nM with HLA-A*02:03 (source organism: SARS-CoV1); 51 nM in the experiment with HLA-A*02:01 (source organism: SARS-CoV1); 17 nM with HLA-A*02:02 (source organism: SARS-CoV1); 117 nM with HLA-A*02:06 (source organism: SARS-CoV1); 19300 nM with HLA-A*68:02 (source organism: SARS-CoV1).
Take LLVQYGAKI: the IC50 in the experiment with HLA-A*02:03 (setting [1]) is 358 nM; in the experiment with HLA-A*02:01 (setting [1]), 1770 nM; with HLA-A*02:02 (setting [1]), 206 nM; in the experiment with HLA-A*02:06 (setting [1]), 1140 nM; in the experiment with HLA-A*68:02 (setting [1]) it was 6430 nM.
For LLVTLAILTA, the IC50 was found to be 43 nM with HLA-A*02:03 (source organism: SARS-CoV1); 33 nM with HLA-A*02:01 (source organism: SARS-CoV1); 4.4 nM in the experiment with HLA-A*02:02 (source organism: SARS-CoV1); 32 nM with HLA-A*02:06 (source organism: SARS-CoV1); 16700 nM with HLA-A*68:02 (source organism: SARS-CoV1).
LLWDYMCIS: the IC50 was found to be 597 nM with HLA-A*02:03 (setting [3]); 45 nM in the experiment with HLA-A*02:01 (setting [3]); 147 nM with HLA-A*02:02 (setting [3]); 408 nM with HLA-A*02:06 (setting [3]); 12700 nM with HLA-A*68:02 (setting [3]).
LLYFILFFV: the IC50 with HLA-A*02:03 (setting [2]) is 323 nM; with HLA-A*02:01 (setting [2]), 164 nM; with HLA-A*02:02 (setting [2]), 227 nM; with HLA-A*02:06 (setting [2]) it was 504 nM; with HLA-A*68:02 (setting [2]), 23000 nM.
The like results for LLYFILFFVA were, in that order, 4700 nM, 1120 nM, 3740 nM, 993 nM and ≥ 70000 nM.
As for LMLKATLLCV, the half-inhibitory concentration (IC50) was found to be 21 nM with HLA-A*02:03 (source organism: SARS-CoV1); 19 nM in the experiment with HLA-A*02:01 (source organism: SARS-CoV1); 3.4 nM with HLA-A*02:02 (source organism: SARS-CoV1); 63 nM in the experiment with HLA-A*02:06 (source organism: SARS-CoV1); 8860 nM with HLA-A*68:02 (source organism: SARS-CoV1).
With LMWFIISIV, the IC50 in the experiment with HLA-A*02:03 (source organism: SARS-CoV1) amounted to 7.2 nM; in the experiment with HLA-A*02:01 (source organism: SARS-CoV1) it was 9.8 nM; with HLA-A*02:02 (source organism: SARS-CoV1), 60 nM; with HLA-A*02:06 (source organism: SARS-CoV1), 27 nM; with HLA-A*68:02 (source organism: SARS-CoV1) it was 18400 nM.
